Measurements from the supplement of paper PMC9112550, “Optimization of the antimicrobial peptide Bac7 by deep mutational scanning” (BMC Biology, 2022).

test system: Escherichia coli TOP10; experiment: shrunken log2 fold change of peptide-encoding DNA abundance (4.5 h post-induction vs induction); higher = less antimicrobial activity (less host growth inhibition); details: time post-induction: 4.5 h; library: site-saturation at positions 5, 18, 19, 20
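Also: peptides expressed intracellularly from a pBAD plasmid library in pooled LB shake-flask culture, induced with 0.3% L-arabinose, DNA abundance read by NGS, three biological replicates, DESeq2 with apeglm shrinkage.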

| Sequence | shrunken log2 fold change |
| --- | --- |
| RRIRHRPPRLPRPRPRPYTIPRP | -0.0416 |
| RRIRPRPPRLPRPRPRPLTRPRP | 0.103 |
| RRIRGRPPRLPRPRPRPPQAPRP | 1.58 |
| RRIRRRPPRLPRPRPRPENQPRP | 0.368 |
| RRIRARPPRLPRPRPRPYEYPRP | -0.04 |
| RRIRQRPPRLPRPRPRPCCVPRP | 0.115 |
| RRIRDRPPRLPRPRPRPAYEPRP | -0.0214 |
| RRIRKRPPRLPRPRPRPMAKPRP | 0.545 |
| RRIRFRPPRLPRPRPRPYITPRP | -0.906 |
| RRIRTRPPRLPRPRPRPKFFPRP | -0.00469 |
| RRIRMRPPRLPRPRPRPEVTPRP | 0.053 |
| RRIRPRPPRLPRPRPRPTIEPRP | -0.0748 |
| RRIRVRPPRLPRPRPRPEHFPRP | 0.131 |
| RRIRQRPPRLPRPRPRPPHNPRP | 1.15 |
| RRIRIRPPRLPRPRPRPELNPRP | 0.12 |
| RRIRPRPPRLPRPRPRPSYDPRP | -0.526 |
| RRIRCRPPRLPRPRPRPWNHPRP | -0.939 |
| RRIRSRPPRLPRPRPRPPFEPRP | 0.518 |
| RRIRHRPPRLPRPRPRPRAAPRP | 0.368 |
| RRIRPRPPRLPRPRPRPRNSPRP | 0.0183 |
| RRIRVRPPRLPRPRPRPFKLPRP | -0.277 |
| RRIRNRPPRLPRPRPRPWFQPRP | -0.109 |

| Sequence | shrunken log2 fold change |
| --- | --- |
| RRIRCRPPRLPRPRPRPYWCPRP | -0.201 |
| RRIRHRPPRLPRPRPRPKIWPRP | -0.0285 |
| RRIRGRPPRLPRPRPRPWVRPRP | 0.151 |
| RRIRTRPPRLPRPRPRPAWVPRP | 0.285 |
| RRIRQRPPRLPRPRPRPYDIPRP | 0.0432 |
| RRIRHRPPRLPRPRPRPITFPRP | -0.0514 |
| RRIRFRPPRLPRPRPRPTTDPRP | -0.13 |
| RRIRPRPPRLPRPRPRPLGAPRP | 0.426 |
| RRIRMRPPRLPRPRPRPPGYPRP | 0.599 |
| RRIRGRPPRLPRPRPRPNHNPRP | -0.409 |
| RRIRVRPPRLPRPRPRPVFKPRP | -0.196 |
| RRIRLRPPRLPRPRPRPPEIPRP | 0.196 |
| RRIRLRPPRLPRPRPRPNSRPRP | -0.0164 |
| RRIRMRPPRLPRPRPRPMHRPRP | -0.156 |
| RRIRMRPPRLPRPRPRPHPQPRP | 0.427 |
| RRIRYRPPRLPRPRPRPSHWPRP | -0.225 |
| RRIRGRPPRLPRPRPRPEGDPRP | 1.94 |
| RRIRIRPPRLPRPRPRPWRLPRP | -0.0935 |
| RRIRGRPPRLPRPRPRPHQLPRP | 0.339 |
| RRIRMRPPRLPRPRPRPKYEPRP | 0.741 |
| RRIRKRPPRLPRPRPRPIAPPRP | 0.718 |
| RRIRRRPPRLPRPRPRPEHYPRP | 0.0555 |

| Sequence | shrunken log2 fold change |
| --- | --- |
| RRIRQRPPRLPRPRPRPHQIPRP | 0.0211 |
| RRIRYRPPRLPRPRPRPDLHPRP | -0.0267 |
| RRIRYRPPRLPRPRPRPRCAPRP | -0.199 |
| RRIRYRPPRLPRPRPRPEFYPRP | -0.316 |
| RRIRPRPPRLPRPRPRPGLVPRP | 0.287 |
| RRIRQRPPRLPRPRPRPINVPRP | -0.0732 |
| RRIRWRPPRLPRPRPRPIDAPRP | 0.0128 |
| RRIRGRPPRLPRPRPRPTLRPRP | 0.793 |
| RRIRQRPPRLPRPRPRPFIQPRP | -0.321 |
| RRIRSRPPRLPRPRPRPLIHPRP | -0.279 |
| RRIRARPPRLPRPRPRPHNKPRP | -0.398 |
| RRIRDRPPRLPRPRPRPLKMPRP | 0.122 |
| RRIRHRPPRLPRPRPRPSCAPRP | 0.137 |
| RRIRLRPPRLPRPRPRPDNMPRP | -0.519 |
| RRIRRRPPRLPRPRPRPRTDPRP | 0.438 |
| RRIRKRPPRLPRPRPRPRHNPRP | -0.241 |
| RRIRVRPPRLPRPRPRPTAWPRP | 0.145 |
| RRIRGRPPRLPRPRPRPCKDPRP | -0.0805 |
| RRIRIRPPRLPRPRPRPDKIPRP | -0.0602 |
| RRIRVRPPRLPRPRPRPMKMPRP | -0.0573 |
| RRIRWRPPRLPRPRPRPAKLPRP | 0.0566 |
| RRIRCRPPRLPRPRPRPHVNPRP | -0.497 |

| Sequence | shrunken log2 fold change |
| --- | --- |
| RRIRARPPRLPRPRPRPCWGPRP | 0.205 |
| RRIRLRPPRLPRPRPRPWPEPRP | 0.243 |
| RRIRFRPPRLPRPRPRPTCTPRP | -0.0787 |
| RRIRVRPPRLPRPRPRPPYVPRP | -0.153 |
| RRIRARPPRLPRPRPRPILEPRP | -0.0126 |
| RRIRGRPPRLPRPRPRPYPNPRP | -0.529 |
| RRIRLRPPRLPRPRPRPQFMPRP | -0.462 |
| RRIRIRPPRLPRPRPRPQATPRP | -0.24 |
| RRIRHRPPRLPRPRPRPRWGPRP | 0.255 |
| RRIRPRPPRLPRPRPRPPNNPRP | 0.414 |
| RRIRKRPPRLPRPRPRPEYHPRP | -0.0122 |
| RRIRLRPPRLPRPRPRPCIIPRP | -0.394 |
| RRIRGRPPRLPRPRPRPWDIPRP | 0.212 |
| RRIRKRPPRLPRPRPRPRVQPRP | 0.386 |
| RRIRCRPPRLPRPRPRPQHSPRP | -0.764 |
| RRIRYRPPRLPRPRPRPYITPRP | -0.529 |
| RRIRMRPPRLPRPRPRPCATPRP | 2.58 |
| RRIRHRPPRLPRPRPRPHCWPRP | -0.0124 |
| RRIRMRPPRLPRPRPRPLVAPRP | 1.16 |
| RRIRARPPRLPRPRPRPAGGPRP | 0.678 |
| RRIRTRPPRLPRPRPRPEAQPRP | 0.00719 |
| RRIRHRPPRLPRPRPRPQDKPRP | -0.355 |

| Sequence | shrunken log2 fold change |
| --- | --- |
| RRIRNRPPRLPRPRPRPKSEPRP | -0.414 |
| RRIRPRPPRLPRPRPRPAQPPRP | 0.732 |
| RRIRQRPPRLPRPRPRPYERPRP | 0.074 |
| RRIRQRPPRLPRPRPRPEPNPRP | -0.0098 |
| RRIRVRPPRLPRPRPRPDQYPRP | -0.234 |
| RRIRYRPPRLPRPRPRPHGEPRP | 0.0796 |
| RRIRDRPPRLPRPRPRPTGKPRP | 0.0507 |
| RRIRPRPPRLPRPRPRPMTHPRP | -0.268 |
| RRIRFRPPRLPRPRPRPHHYPRP | -0.681 |
| RRIRKRPPRLPRPRPRPEWIPRP | 0.454 |
| RRIRHRPPRLPRPRPRPNHCPRP | -0.0509 |
| RRIRCRPPRLPRPRPRPTWTPRP | 0.362 |
| RRIRCRPPRLPRPRPRPIGTPRP | -0.279 |
| RRIRERPPRLPRPRPRPGKRPRP | 0.093 |
| RRIRQRPPRLPRPRPRPGVRPRP | -0.0485 |
| RRIRWRPPRLPRPRPRPFIMPRP | -0.0374 |
| RRIRFRPPRLPRPRPRPLPEPRP | 0.224 |
| RRIRVRPPRLPRPRPRPTLKPRP | 0.151 |
| RRIRDRPPRLPRPRPRPLTRPRP | -0.00589 |
| RRIRARPPRLPRPRPRPERFPRP | 0.0769 |
| RRIRFRPPRLPRPRPRPWIAPRP | -0.0534 |
